Data from PMC10589721 (Proceedings of the National Academy of Sciences of the …, 2023).
Like-named read-outs stand apart in the source and are kept apart here. No end group written: not given here. *: point of attachment. Biotin = O=C1N[C@H]2[C@H](CS[C@H]2CCCCC(=O)*)N1; Ahx = NCCCCCC(=O)O

Assays:
full-length human OGT = target: T1, full-length human OGT (Homo sapiens, UniProt O15294); test: OGT inhibition assay; assay type: biochemical
T1 sequence (O15294 1-1046): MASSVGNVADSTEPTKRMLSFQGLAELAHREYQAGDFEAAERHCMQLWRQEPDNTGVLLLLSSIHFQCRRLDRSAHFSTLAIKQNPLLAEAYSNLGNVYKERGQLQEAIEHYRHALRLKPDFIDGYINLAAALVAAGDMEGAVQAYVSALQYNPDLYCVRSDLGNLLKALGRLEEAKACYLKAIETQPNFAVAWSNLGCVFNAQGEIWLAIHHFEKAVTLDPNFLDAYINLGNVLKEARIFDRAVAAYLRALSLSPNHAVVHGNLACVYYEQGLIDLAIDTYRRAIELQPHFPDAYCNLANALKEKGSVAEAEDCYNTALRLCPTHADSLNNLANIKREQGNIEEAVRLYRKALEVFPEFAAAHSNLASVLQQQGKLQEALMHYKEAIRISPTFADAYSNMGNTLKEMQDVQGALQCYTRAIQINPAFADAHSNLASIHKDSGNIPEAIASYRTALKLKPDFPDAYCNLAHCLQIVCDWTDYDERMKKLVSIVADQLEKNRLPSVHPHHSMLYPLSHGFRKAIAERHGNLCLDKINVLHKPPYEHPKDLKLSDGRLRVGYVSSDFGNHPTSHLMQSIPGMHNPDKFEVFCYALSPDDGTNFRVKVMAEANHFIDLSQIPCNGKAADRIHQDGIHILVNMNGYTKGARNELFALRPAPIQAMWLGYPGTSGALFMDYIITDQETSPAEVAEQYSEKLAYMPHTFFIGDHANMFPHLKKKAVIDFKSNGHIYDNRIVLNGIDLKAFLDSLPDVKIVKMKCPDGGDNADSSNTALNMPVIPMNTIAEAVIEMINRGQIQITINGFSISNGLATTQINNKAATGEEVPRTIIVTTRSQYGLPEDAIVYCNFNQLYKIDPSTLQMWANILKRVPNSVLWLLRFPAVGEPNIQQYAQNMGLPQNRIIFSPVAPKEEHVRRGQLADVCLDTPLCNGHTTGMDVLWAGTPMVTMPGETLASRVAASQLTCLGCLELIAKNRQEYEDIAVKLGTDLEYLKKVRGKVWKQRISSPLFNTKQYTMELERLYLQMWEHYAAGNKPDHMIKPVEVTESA

[1] = target: T2, O-GlcNAc transferase (OGT), as used in the fluorescence activity assay (human, UniProt O15294 1-1046); test: enzyme inhibition kinetics
T2 sequence (looked up): T1 sequence (O15294 1-1046)

[2] = target: T2, O-GlcNAc transferase (OGT), as used in …; test: enzyme inhibition kinetics; remark: listed apart in the source
[3] = target: T2, O-GlcNAc transferase (OGT), as used in …; test: enzyme inhibition kinetics; remark: listed apart in the source
[4] = target: T3, OGT4.5 (crystallizable construct of O-GlcNAc transferase: catalytic region appended to 4.5 TPRs) (human, UniProt O15294 323-1041); test: crystal structure
T3 sequence: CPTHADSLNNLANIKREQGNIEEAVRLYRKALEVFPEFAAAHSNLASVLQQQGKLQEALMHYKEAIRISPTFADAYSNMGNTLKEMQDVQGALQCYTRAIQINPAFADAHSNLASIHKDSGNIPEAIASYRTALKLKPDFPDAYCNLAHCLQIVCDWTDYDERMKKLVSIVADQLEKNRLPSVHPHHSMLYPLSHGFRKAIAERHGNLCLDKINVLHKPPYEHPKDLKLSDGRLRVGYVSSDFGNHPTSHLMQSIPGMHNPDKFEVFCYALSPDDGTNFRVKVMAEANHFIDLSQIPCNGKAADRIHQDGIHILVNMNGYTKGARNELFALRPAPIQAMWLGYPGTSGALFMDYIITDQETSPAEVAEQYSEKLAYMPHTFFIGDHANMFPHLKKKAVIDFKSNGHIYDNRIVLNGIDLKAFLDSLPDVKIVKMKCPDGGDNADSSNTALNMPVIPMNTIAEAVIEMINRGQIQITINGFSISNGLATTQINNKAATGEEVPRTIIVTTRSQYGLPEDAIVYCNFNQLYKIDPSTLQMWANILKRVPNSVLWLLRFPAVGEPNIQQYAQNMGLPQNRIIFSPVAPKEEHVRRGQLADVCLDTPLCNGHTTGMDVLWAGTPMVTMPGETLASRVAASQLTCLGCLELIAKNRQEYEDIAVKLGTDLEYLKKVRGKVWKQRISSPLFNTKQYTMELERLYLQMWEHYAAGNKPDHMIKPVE

[5] = target: T3, OGT4.5 (crystallizable construct of …); test: BLI

Molecule: PTSKAYSPRYSISDR [SOS1]
- inhibition of OGT (in words) (full-length human OGT): none of these four peptides inhibited OGT

Molecule: PEENPYFPTYKFPEL [repeat 1 of SORB1]
- inhibition of OGT (in words) (full-length human OGT): none of these four peptides inhibited OGT

Molecule: RGLGEFTPLYPMLFG [SCLY]
- inhibition of OGT (in words) (full-length human OGT): none of these four peptides inhibited OGT

Molecule: DDSDLYSPRYSFSED [repeat 2 of SORB1]
- inhibition of OGT (in words) (full-length human OGT): none of these four peptides inhibited OGT

Molecule: GDFPVMFMPKYSIIF [peptide P11]
- Ki [1]: 4 ± 0.9 mM
- Ki [2]: 2700 ± 300 nM
- Ki [3]: 3.8 ± 0.4 µM

Molecule: FMPKYSI [truncated P11 peptide (tP11)]
- binding result [4]: binds

Molecule: {Biotin-Ahx}-GDFPVMFMPKYSIIF [biotinylated peptide P11 (Biotin-Ahx-GDFPVMFMPKYSIIF)]
- Kd [5]: 470 ± 160 nM
